Test results as given in patent US7662404B2, “Transdermal delivery system for dried particulate or lyophilized peptides and polypeptides” (TransPharma Medical Ltd., priority 2002, dated 2010).
Like-named read-outs stand apart in the source and are kept apart here. One block for each compound: values may come before it.

Tests used:
plasma Ca++ = assay: In vivo bioactivity of sCT: plasma Ca++ concentrations in pigs (Example 10)
Protocol: In vivo bioactivity of sCT was evaluated by measuring plasma Ca^++ concentrations. […] Transdermal administration from the printed patches yielded a ˜20% decrease in Ca^++ concentrations, regardless of sCT dose. Thus, sCT delivered transdermally remained intact and biologically active.

[1] = Plasma sCT after SC injection or printed patch with ViaDerm in pigs (Example 10); assay type: in vivo; conditions: for bioavailability: compared to SC
Protocol: Pigs (males, 10-12 kg, Large white) were treated as follows:
Group 1: 1 ml of salmon calcitonin containing 16.7 μg peptide (Miacalcin, Novartis Pharma Ag, Basle, Switzerland) was injected subcutaneously (S.C) to each pig (total 3 pigs).
Group 2: Each pig underwent 2 ViaDerm applications on one site on the back (150 micro-channels per cm^2). Patches of 400 μg sCT/patch of 1.4 cm^2 were placed on the treated area (total 3 pigs).
Group 3: Each pig underwent 2 ViaDerm applications on one site on the back (150 micro-channels per cm^2). Patches of 200 μg sCT/patch of 1.4 cm^2 were placed on the treated area (total 3 pigs).
In order to determine sCT concentrations in pig plasma an ELISA assay was performed (Diagnostic Systems Laboratories, Inc. Webster, Tex., USA).

blood glucose = assay: Bioactivity of insulin in diabetic rats: blood glucose after printed patches or SC (Example 6); assay type: in vivo
Protocol: (§1) ViaDerm apparatus was used. The density of the microelectrode array used in these studies was 100 microelectrodes/cm^2. The device was applied twice on each location, so the density of the micro channels was 200/cm^2. The skin was treated with an applied voltage of 330V, frequency of 100 kHz, two bursts, 700 microsecond burst length, and no current limitation.
Male rats (300-325, Sprague Dawley, Harlan laboratories Ltd., Israel) were deprived of food and received water as libitum 48 hr prior to patch applications. Streptozotocin (55 mg/kg in citric buffer, 0.1 M, pH 4.5) was injected intraperitonally (IP) to the rats 24 hr prior to patch applications in order to induce diabetes. […] The diabetic rats were premedicated with IP injections of 10% ketamin/2% xylazine solution at a ratio of 70:30, 1 ml/kg. Anesthesia was maintained with either isofluorane or halothane gas. The abdominal skin hair was shaved carefully, and was cleaned with isopropyl alcohol. After 30 min, transepidermal water loss measurements (TEWL, Dermalab Cortex Technology, Hadsund, Denmark) were performed to check skin integrity. Skin micro-channeling was performed by the use of the ViaDerm instrument with the conditions described above. TEWL was then measured again to control the operation. The treated skin was covered with Lispro (HUMALOG®) or Regular (HUMULIN®R) 1.5 IU insulin-printed patches. SC injections of 0.4 IU served as a positive control. Blood samples were withdrawn from the tip of the rat's tail at 0, 2, 4, and 6 hr post application, and glucose level was determined.

[2] = Bioavailability of rhGH printed patches with ViaDerm in guinea pigs (Example 5); assay type: in vivo
Protocol: as §1, with “ViaDerm micro-channeling” for “ViaDerm”
(§2) Male Guinea pigs (500-800 grams, Dunkin Hartley, Harlan laboratories Ltd., Israel) and Male rats (350-400, Sprague Dawley, Harlan laboratories Ltd., Israel), were premedicated with IP injections of 10% ketamin/2% xylazine solution at a ratio of 70:30, 1 ml/kg. Anesthesia was maintained with either isofluorane or halothane gas. The abdominal skin hair was shaved carefully, and was cleaned with isopropyl alcohol. After 30 min, transepidermal water loss, measurements (TEWL, Dermalab Cortex Technology, Hadsund, Denmark) were performed to check skin integrity. Skin micro channeling was performed by the use of the ViaDerm instrument with the conditions described above. TEWL was then measured again to control the operation. The treated skin was covered with the rhGH patches and blood samples were withdrawn from a preinserted carotid cannula in guinea pig or from the rat's tail at predetermined times post application. The serum was separated by centrifugation and analyzed for rhGH by Elisa kit (DSL-10-1900, Diagnostic Systems Laboratories, Inc. Webster, Tex., USA). The transdermal delivery of rhGH was compared to that of subcutaneous hGH delivery.

[3] = Bioavailability of rhGH printed patches with ViaDerm in normal rats (Example 5); assay type: in vivo
Protocol: as §1, with “ViaDerm micro-channeling” for “ViaDerm”
as §2

[4] = rhGH in serum after printed patches and ViaDerm, hypophysectomized rats (Example 4); assay type: in vivo
Protocol: The materials and methods applied in this example were similar to those in EXAMPLE 3 except from the following points: • a) The animals were treated with ELTROXIN™ and hydrocortisone only until 10 days before initiating the treatments. • b) The test article was a printed patch of rhGH in two doses: 0.15 mg/patch and 0.5 mg/patch. The patches were composed of a backing liner (DOW BLF2080™, The Dow Chemical Company, MI, USA) on which drops of GENOTROPIN® were evenly placed. All the patches contained 144 drops over an area 1.4×1.4 cm^2. The printed patch was attached to the skin by a fixing patch, 2 cm×2 cm with 300 μm thick (wet) glue (DURO-TAK™ 3872516; National Starch & Chemical Pty Ltd, NSW, Australia) on the backing liner. • c) The experimental setup included 2 groups of 3 rats each: • Group 1: Treated with ViaDerm+one 0.15 mg printed patch. • Group 2: Treated with ViaDerm+one 0.5 mg printed patch. Results 1. Printed Patches

IGF-1 = IGF-1 in the serum of hypophysectomized rats after rhGH (Example 3); assay type: in vivo
Excerpt: GH is produced by the pituitary gland (hypophysis) and acts in several ways and on several targets. A distinctive role attributed to GH is the induction of IGF-1 production by liver cells (hepatocytes). As GH is the main trigger for the production of IGF-1, the activity of GH can be detected by measuring IGF-1 levels in the blood. GH levels in the blood can be directly analyzed as well.
Results 1. rhGH in the Serum

[5] = rat, in vivo
Excerpt: • Animals: Rats, males, 250 gr, Sprague Dawley, hypophysectomized at Harlan USA labs. […] This fraction was spread on a hypoallergenic clear medical tape (Kendall Curity®, Emergency Medical Products Inc., USA) in doses specified below, and placed directly onto the skin as a transdermal patch. […]
The transdermal groups (1 and 2) received a treatment including: Shaving, drying, baseline Trans Epidermal Water Loss measurement (TEWL; DERMALAB® Cortex Technology, Hadsund, Denmark), two ViaDerm applications of 200 micropores/cm^2 (placebo for Group 2), second TEWL measurement and patch application. At the end of the study all animals were sacrificed by an IV overdose of sodium-pentobarbital (140 mg/kg). • ViaDerm parameters: burst length—500 μsec, starting amplitude—250 V, number of bursts—5 and applications per site—2 (200 micropores/cm^2). • Blood sampling: Blood samples (0.5 ml/rat) were withdrawn at 6 time points, t=0, 2, 4, 6, 12 and 24 hours, from the tail end of anesthetized rats (20 mg/rat ketamine, intramuscular). • Serum analysis: rhGH in the serum was detected using an Elisa kit (DSL-10-1900; Diagnostic Systems Laboratories, TX, USA) specific for rhGH. […] IGF-1 was detected according to RIA protocol (Endocrine, Vol. 16, no. 1, 1-6, October 2001). […]

[6] = diabetic rats, 1.5 IU insulin-printed patch on ViaDerm treated skin
[7] = diabetic rats, 1.5 IU insulin-printed patch on ViaDerm treated skin, from about 400 mg/dl
[8] = hyperglycemic rats, transdermal
[9] = Transdermal printed patch, dose 50 (mg)
[10] = Transdermal printed patch, dose 150 (mg)
[11] = Transdermal printed patch, dose 300 (mg)
[12] = Transdermal printed patch, dose 400 (mg)
[13] = Transdermal printed patch, dose 75 μg
[14] = Transdermal printed patch, dose 150 μg
[15] = Transdermal printed patch, dose 300 μg
[16] = Transdermal printed patch, dose 450 μg
[17] = Group 1: ViaDerm + 0.15 mg printed patch
[18] = Group 2: ViaDerm + 0.5 mg printed patch
[19] = Group 1: ViaDerm + ~0.8 mg rhGH powder patch
[20] = Group 3: SC injection 150 μg/rat

Amount delivered ([1]; Printed patch 400 μg): 31.92 µg
bioavailability ([1]; Printed patch 400 μg): 7.98%
AUC ([1]; S.C. 16.7 μg, neck): 206.377 ± 63.647 pg·min/mL
Cmax ([1]; male, Large white, pig, plasma, other: transdermal printed patch on ViaDerm-treated skin, 200 ug, patch 200 μg, ViaDerm, back): 2.33 ± 0.673 ng/mL
bioavailability ([1]; male, Large white, pig, plasma, other: transdermal printed patch on ViaDerm-treated skin, 200 ug, patch 200 μg, read-out: bioavailability): 10%
Cmax ([1]; male, Large white, pig, plasma, other: transdermal printed patch on ViaDerm-treated skin, 400 ug, Printed patch 400 μg, ViaDerm, back): 2.82 ± 1.74 ng/mL
bioavailability ([1]; male, Large white, pig, plasma, other: transdermal printed patch on ViaDerm-treated skin, 400 ug, Printed patch 400 μg, read-out: bioavailability): 8%
Cmax ([1]; male, Large white, pig, plasma, sc, 16.7 ug, S.C. 16.7 μg, neck): 2.21 ± 1.12 ng/mL
Amount delivered ([1]; patch 200 μg): 20.12 µg
bioavailability ([1]; patch 200 μg): 10.06%
Compound: CC(C)C[C@H](NC(=O)[C@H](CCCCN)NC(=O)CNC(=O)[C@H](CC(C)C)NC(=O)[C@@H](NC(=O)[C@@H]1CSSC[C@H](N)C(=O)N[C@@H](CO)C(=O)N[C@@H](CC(N)=O)C(=O)N[C@@H](CC(C)C)C(=O)N[C@@H](CO)C(=O)N[C@@H]([C@@H](C)O)C(=O)N1)C(C)C)C(=O)N[C@@H](CO)C(=O)N[C@@H](CCC(N)=O)C(=O)N[C@@H](CCC(=O)O)C(=O)N[C@@H](CC(C)C)C(=O)N[C@@H](Cc1c[nH]cn1)C(=O)N[C@@H](CCCCN)C(=O)N[C@@H](CC(C)C)C(=O)N[C@@H](CCC(N)=O)C(=O)N[C@H](C(=O)N[C@@H](Cc1ccc(O)cc1)C(=O)N1CCC[C@H]1C(=O)N[C@@H](CCCNC(=N)N)C(=O)N[C@H](C(=O)N[C@@H](CC(N)=O)C(=O)N[C@H](C(=O)NCC(=O)N[C@@H](CO)C(=O)NCC(=O)N[C@H](C(=O)N1CCC[C@H]1C(N)=O)[C@@H](C)O)[C@@H](C)O)[C@@H](C)O)[C@@H](C)O [sCT]
decrease of plasma Ca++ concentrations from time 0 (plasma Ca++; SC administration 16.7 μg): ~25%
decrease in plasma Ca++ concentrations (plasma Ca++; transdermal from printed patches, regardless of sCT dose (200 or 400 μg)): ~20%

Compound: HUMALOG®: human recombinant insulin Lispro, 100 IU/ml (Lilly), used in 1.5 IU printed patches
blood glucose level after 6 hr (blood glucose; [6]): about 30 mg/dl
blood glucose level three hours following application (blood glucose; [7]): about 70 mg/dl

Compound: HUMULIN®: human recombinant insulin, regular, 100 IU/ml (Lilly), used in 1.5 IU printed patches
blood glucose level after 6 hr (blood glucose; [6]): about 30 mg/dl
blood glucose level three hours following application (blood glucose; [7]): about 70 mg/dl

Compound: insulin: insulin given as SC injection of 0.4 IU, positive control; product not specified
blood glucose level after 6 hr (blood glucose; diabetic rats, SC injection 0.4 IU): about 200 mg/dl
blood glucose level three hours following administration (blood glucose; diabetic rats, SC injection 0.4 IU, from about 400 mg/dl): about 70 mg/dl
period of normal glucose level (blood glucose; [8]): 4 to 6 h
time to normal glucose level (100 mg/dl to 200 mg/dl glucose) (blood glucose; [8]): 1 to 3 h

Compound: rhGH: recombinant human growth hormone, 22 kDa polypeptide; GENOTROPIN (Pharmacia & Upjohn) with mannitol
Bioavailability (% of SC) ([2]; SC, dose 50 (mg printed; reference)): 100 % of SC
AUC ([2]; SC, dose 50 (mg)): 176 ng·h/mL
AUC [2, 9]: 57 ng·h/mL
Bioavailability (% of SC) [2, 9]: 32.4 % of SC
AUC [2, 10]: 175 ng·h/mL
Bioavailability (% of SC) [2, 10]: 33.1 % of SC
AUC [2, 11]: 362 ng·h/mL
Bioavailability (% of SC) [2, 11]: 34.3 % of SC
AUC [2, 12]: 404 ng·h/mL
Bioavailability (% of SC) [2, 12]: 28.7 % of SC
AUC ([3]; SC, dose 150 μg): 489 ng·h/mL
Bioavailability (% of SC) ([3]; SC, dose 150 μg (reference)): 100 % of SC
AUC [3, 13]: 184 ng·h/mL
Bioavailability (% of SC) [3, 13]: 75.3 % of SC
AUC [3, 14]: 376 ng·h/mL
Bioavailability (% of SC) [3, 14]: 76.9 % of SC
AUC [3, 15]: 727 ng·h/mL
Bioavailability (% of SC) [3, 15]: 74.3 % of SC
AUC [3, 16]: 884 ng·h/mL
Bioavailability (% of SC) [3, 16]: 60.3 % of SC
AUC absolute value [4, 17]: 1594 ng·h/mL
time of peak rhGH serum level [4, 17]: 4 h
AUC absolute value [4, 18]: 6563 ng·h/mL
time of peak rhGH serum level [4, 18]: 6 h
IGF-1 in the serum (IGF-1; [19]): elevation of IGF-1
time of maximal average IGF-1 concentration (IGF-1; [19]): 12 h
IGF-1 in the serum (IGF-1; Group 2: rhGH patch on intact skin): low level of IGF-1
IGF-1 in the serum (IGF-1; [20]): anticipated elevation of IGF-1
time of peak IGF-1 concentration (IGF-1; [20]): 12 h
bioavailability compared to the SC group [5]: 33.8%
AUC normalized for 0.1 mg rhGH ([5]; sc): 1128 µg·h/mL
